# Reference: patent publication US9868789B2, “Synergistic combinations of OX40L antibodies for the treatment of GvHD” (Kymab Limited, priority 2015, dated 2018)
# T1: CHO-S expressed hOX40L (Homo sapiens, UniProt P23510)
# T1 construct: expressed in transfected cells
# T1 sequence (P23510 1-183): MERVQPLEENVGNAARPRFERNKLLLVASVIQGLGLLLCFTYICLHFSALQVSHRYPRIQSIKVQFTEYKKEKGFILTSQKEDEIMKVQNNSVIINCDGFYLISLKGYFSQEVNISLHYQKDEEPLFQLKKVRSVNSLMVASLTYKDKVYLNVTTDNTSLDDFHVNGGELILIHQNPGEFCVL
# B1: 10A07 (human): fully human anti-human OX40L antibody reformatted to IgG4-PE; VH SEQ ID No:2, VL SEQ ID No:16 (antibody, listed as Homo Sapiens, V domains shown)
# VH: EVQLVESGGVLVQPGGSLRLSCAASGFTFSSYIMTWVRQAPGKGLEWVSGISGSGGGTYYADSMKGRFTISRDNSKNTLYLQMNSLRVEDTAVYYCAKDRLGPITLVRGGYYYGMDVWGQGTTVTVSS
# VL: DIQMTQSPSSLSASVGDRVTITCRASQSISDYLNWYQQKPGKAPKFLIYAASSLQSGVPSRFSGSGSGTDFTLTVSSLQPEDFATYYCQQSYSTPRTFGQGTRVEIK
# modifications: IgG4-PE constant region
# B2: 2D10 (hybridoma): murine/human chimeric anti-hOX40L antibody purified from hybridoma supernatant; VH SEQ ID No:34, VL SEQ ID No:48 (antibody, listed as Homo Sapiens, V domains shown)
# VH: EVQLVESGGGLVQPGGSLRLSCAASGFTFSNYAMNWVRQAPGKGLEWVSTISGSGGATRYADSVKGRFTISRDNSRNTVYLQMNSLRVEDTAVFYCTKDRLIMATVRGPYYYGMDVWGQGTTVTVSS
# VL: DIQMTQSPSSLSASVGDRVTITCRASQSISSYLNWYQQKPGKAPNLLIYAASSLQSGVPSRFSGSGSETDFTLTISSLQPEDFATYYCQQSHSVSFTFGPGTKVDIK
# B3: 9H04 (hybridoma): murine/human chimeric anti-hOX40L antibody from hybridoma; VH SEQ ID No:66, VL SEQ ID No:80 (antibody, listed as Homo Sapiens, V domains shown)
# VH: QVQLVESGGGLVKPGGSLRLSCAASRFTLSDYYMTWIRQAPGKGLEWVSYISSSGNTIYYADSVKGRFTISRDNAKNSLYLQMNSLRAEDTAVYYCARDLSGSYWDYYYGMDVWGQGTTVTVSS
# VL: AIQLTQSPSSLSTSVGDRVTIACRASQGINNALAWYQQKPGKAPKLLIYDASSLESGVPSRFSGSGSGTDFTLTISSLQPEDFATYYCQQFNSYPRTFGQGTKVEIK
# B4: 10A07 (hybridoma): murine/human chimeric anti-hOX40L antibody purified from hybridoma supernatant; VH SEQ ID No:2, VL SEQ ID No:16 (antibody, listed as Homo Sapiens, V domains shown)
# VH: B1 VH
# VL: B1 VL
# Tests used:
# [1] = biological target: T2, recombinant hOX40L (Homo sapiens, UniProt P23510); experiment: Surface plasmon resonance, apparent affinity to human OX40L; type: binding; settings: SPR, 25° C., OX40L at 256 nM; CNROR = Cannot resolve off-rate
# T2 construct: cDNA encoding the extracellular domain of human OX40L was cloned into a pREP4 expression plasmid; made in house; host or cells: FreeStyle CHO-S, transient expression
# Method: (§1) SPR analysis was carried out using the ProteOn™ XPR36 Array System (BioRad). Anti-mouse IgG (GE Healthcare BR-1008-38) was immobilised on a GLM biosensor surface using amine coupling, the surface was then blocked using 1 M ethanolamine. Test antibodies were captured on this surface and recombinant hOX40L (human and rhesus) were used at a single concentration of 256 nM, binding sensorgrams were double referenced using a buffer injection (i.e. 0 nM) to remove baseline drift and injection artefacts. Apparent affinities for the OX40L-antibody interaction were determined using the 1:1 model inherent to the ProteOn XPR36 analysis software. The assay was run using HBS-EP (Teknova) as running buffer and carried out at 25° C.
# [2] = biological target: Rhesus monkey OX40L; experiment: Surface plasmon resonance, apparent affinity to rhesus OX40L; type: binding, Rhesus (Macaca mulatta); settings: SPR, 25° C., OX40L at 256 nM; CNROR = Cannot resolve off-rate
# Method: as §1
# [3] = tested on: allogeneic PBMC/PBMC MLR; experiment: Allogeneic PBMC/PBMC Mixed Lymphocyte Reaction (IFN-γ release); type: cell-based, human; settings: compared to the isotype control; one valid experiment
# Method: PBMCs are isolated from leukoreduction system chambers (NHSBT) using Ficoll-Paque plus (GE Healthcare) density gradient centrifugation. PBMC are pre-incubated with mitomycin C (Sigma) at 10 μg/mL in PBS for one hour at 37° C. Cells are then washed 3 times in PBS centrifuging at 300×g for 3 minutes, aspirating the supernatant after each wash. Allogeneic PBMC (not treated with mitomycin C) are added to a 96-well plate in RPMI supplemented with 10% v/v FBS at a concentration of 2×10^6/ml, 50 μL/well. Anti-OX40L antibodies are diluted in culture media and added to 96 well plate containing PBMC (not mitomycin C treated) at 50 μL/well. Mitomycin C treated PBMC are then added to allogeneic PBMC (not treated with mitomycin C) in 96-well plate at a final cell ratio in range of 1:1 to 4:1 mitomycin C treated to non mitomycin C based on number of cells/well. The cells are incubated for five days at 37° C./5% CO2. After five days TNF-α, IFN-γ, and IL-2 are measured by duoset ELISA (R&D Systems) according to manufacturer's recommendations. Proliferation is measured by CFSE dilution according to manufacturer's recommendations.
# PBMCs were isolated from leukoreduction system chambers (NHSBT) using Ficoll-Paque plus (GE Healthcare) density gradient centrifugation. […] After five days, IFN-γ was measured by duoset ELISA (R&D Systems) according to manufacturer's recommendations. […]
# [4] = tested on: CD3 primed primary human T lymphocytes; experiment: Effect of anti-OX40L antibodies on CD3 primed primary human T lymphocytes (IFN-γ release); type: cell-based; settings: 10 μg/mL, 5 days, four independent donors; versus human IgG4PE isotype control
# Method: In order to determine whether anti-OX40L had the ability to induce T-cell responses in the absence of OX40L, the assay below was performed using method adapted from Wang et al., Hybridoma (Larchmt)., 2009 Aug.; 28(4):269-76, in which an agonist anti-OX40L antibody was described.
# A mouse anti-human CD3 antibody (Becton Dickinson) was diluted to 0.5 μg/mL in sterile PBS and 50 μL/well added to a 96 well high binding sterile plate and incubated overnight at 4° C.
# Following overnight incubation, the plate was washed three times with 100 μL of sterile PBS.
# T-cells (CD3 positive) were isolated from PBMC derived from leukoreduction system chambers (NHSBT) as described in Example 3. Following isolation, the cells were added to wells in 100 μL to achieve a final concentration of 1×10^5 cells/well.
# Test antibodies were diluted in RPMI+10% FBS and 50 μL or 100 μL/well added to cell plate to achieve a final assay concentration of 10 μg/mL. In some cases, a mouse anti-human CD28 antibody (Becton Dickinson) was also added to wells at a final concentration of 1 μg/ml
# The assay was incubated for 5 days. After 5 days, harvest supernatants and IFN-γ levels in supernatant were determined as described in Example 5.
# [5] = biological target: T1, CHO-S expressed hOX40L; experiment: FACS binding to CHO-S expressed hOX40L; settings: binding to hOX40L expressed on CHO-S cells; YES
# Method: CHO-S cells expressing hOX40L or untransfected CHO-S cells, diluted in FACS buffer (PBS+1% w/v BSA+0.1% w/v NaN3) were distributed to a 96 well V-bottom plate (Greiner) at a density of 1×10^5 cells per well. Cells were washed with 150 μL of PBS and centrifuged at 300×g for 3 min. Supernatant was aspirated and 150 μL of PBS added. This wash step was repeated.
# 25 μL of hybridoma supernatant or purified antibody from hybridoma supernatant diluted in FACS buffer was added to the washed cells and incubated for 10-15 minutes. Reference Antibody or mouse IgG1 control antibody (Sigma) were diluted in FACS buffer to 20 μg/mL and 25 μL added to cells. 25 μL of human OX40R Fc (in-house) diluted to 1000 ng/mL in FACS buffer were then added to wells. Cells were incubated at 4° C. for 30 minutes.
# Cells were washed twice with 150 μL of PBS centrifuging after each wash step and aspirating supernatant (centrifuged at 300×g for 3 minutes).
# To detect antibody and receptor binding, 50 μL of Goat anti-human IgG-PE (Jackson ImmunoResearch) and APC anti-mouse IgG (Jackson ImmunoResearch) diluted 1 in 500 in FACS buffer was added to the cells. Cells were incubated 30 minutes at 4° C. in the dark.
# To fix cells 100 μL 2% v/v paraformaldehyde was added and cells incubated for 30 minutes at 4° C., cells were pelleted by centrifugation 300×g and the plates and resuspended in 50 μL of FACS buffer. PE and APC signal intensity (geomean) was measured by flow cytometry using a BD FACS Array instrument.
# % of control binding was calculated using geomean fluorescence as described in equation 1 where total binding was defined as reference antibody at 10 μg/mL and non-specific binding as mouse IgG1 antibody at 10 μg/mL. % receptor binding was calculated using Equation 3.
# Binding of antibodies purified from hybridoma supernatant was carried out as described herein.
# Sequence of Rhesus monkey OX40L (as listed by the source): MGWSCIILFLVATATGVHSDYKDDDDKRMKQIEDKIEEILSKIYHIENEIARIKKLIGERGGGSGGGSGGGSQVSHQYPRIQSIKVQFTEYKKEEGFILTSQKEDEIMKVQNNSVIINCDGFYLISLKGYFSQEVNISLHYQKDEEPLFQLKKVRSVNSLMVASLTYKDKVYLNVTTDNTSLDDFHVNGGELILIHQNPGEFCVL
# T2 sequence (P23510 with tags, fused parts or gaps): as the sequence (as listed by the source) above, with Q77R, E95K counted along it
Molecule,Apparent Affinity hOX40L (nM) [1],Apparent Affinity RhsOX40L (nM) [2],IFN-γ release in PBMC/PBMC MLR [3],IFN-γ release from CD3 primed T-cells in the absence of OX40L [4],FACS Binding [5]
B1,CNROR,CNROR,inhibited IFN-γ release,no effect,
B2,CNROR,CNROR,,,YES
B3,,,,,YES
B4,CNROR,CNROR,,,YES
